{"source": "paper PMC5484684", "about": "“Intracellular targeting of annexin A2 inhibits tumor cell adhesion, migration, and in vivo grafting” (Scientific Reports, 2017)", "key": {"[1]": {"molecular_target": "T1, GST-fused recombinant annexin A2 (human, UniProt P07355 1-339)", "T1 construct": "May be the same protein as the annexin A2 bought from Amprox", "T1 sequence (P07355 whole entry, the tested form may be a part)": "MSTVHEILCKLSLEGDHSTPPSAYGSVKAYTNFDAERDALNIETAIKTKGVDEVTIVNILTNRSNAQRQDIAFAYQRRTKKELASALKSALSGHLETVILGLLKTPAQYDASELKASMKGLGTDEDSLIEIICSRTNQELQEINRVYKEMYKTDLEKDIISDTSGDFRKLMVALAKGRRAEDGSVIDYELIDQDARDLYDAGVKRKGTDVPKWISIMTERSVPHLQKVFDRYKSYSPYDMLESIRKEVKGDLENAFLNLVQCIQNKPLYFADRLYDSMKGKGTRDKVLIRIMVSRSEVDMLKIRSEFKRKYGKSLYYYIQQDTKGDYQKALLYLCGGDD", "assay": "phage binding assay; recombinant proteins in 96-well plates; iPhage input 10^9 TU/well; bound phage particles quantified by bacterial infection; TU normalised on an insertless iPhage", "details": "both partners purified"}, "[2]": {"molecular_target": "T2, human recombinant annexin A2 (human, UniProt P07355 1-339)", "T2 construct": "annexin A2, human, recombinant; also called ANXA2; source: bought: Amprox", "T2 sequence (P07355 whole entry)": "as the sequence (P07355 whole entry, the tested form may be a part) above", "assay": "phage binding assay; recombinant proteins in 96-well plates; iPhage input 10^9 TU/well; bound phage particles quantified by bacterial infection; TU normalised on an insertless iPhage", "details": "both partners purified"}}, "note": "Ends that are not written are not given here."}
{"binder": "LGRFYAASG (also: phage-displayed, peptide selected from the X4YX4 iPhage random peptide library in KS1767 cells; the alanine variants were cloned into the fUSE5 vector; source: recovered and amplified by E. coli infection, and purified)", "note": "[LGRFYAASG-displaying iPhage]", "values": [{"measurement": "binding result", "setting": "[1]", "value": "binds"}, {"measurement": "binding result", "setting": "[2]", "value": "binds"}]}
